Measured values taken from patent publication US20220396627A1.

Tests used:
[1] = target: Human Siglec-9-Fc (recombinant human Siglec-9 extracellular domain Q18-G348 fused to human IgG1 Fc) (human); assay: BLI binning, hSiglec-9-Fc on AHC sensor; competitor bound first (row): 2F15
[2] = target: Human Siglec-9-Fc (recombinant human Siglec-9 extracellular domain Q18-G348 fused to human IgG1 Fc) (human); assay: BLI binning, hSiglec-9-Fc on AHC sensor; competitor bound first (row): 9C15
[3] = target: Human Siglec-9-Fc (recombinant human Siglec-9 extracellular domain Q18-G348 fused to human IgG1 Fc) (human); assay: BLI binning, hSiglec-9-Fc on AHC sensor; competitor bound first (row): 9D21
[4] = target: Human Siglec-9-Fc (recombinant human Siglec-9 extracellular domain Q18-G348 fused to human IgG1 Fc) (human); assay: BLI binning, hSiglec-9-Fc on AHC sensor; competitor bound first (row): 12G23
[5] = target: Human Siglec-9-Fc (recombinant human Siglec-9 extracellular domain Q18-G348 fused to human IgG1 Fc) (human); assay: BLI binning, hSiglec-9-Fc on AHC sensor; competitor bound first (row): 12L19
[6] = target: Human Siglec-9-Fc (recombinant human Siglec-9 extracellular domain Q18-G348 fused to human IgG1 Fc) (human); assay: BLI binning, hSiglec-9-Fc on AHC sensor; competitor bound first (row): 12P18
[7] = target: Human Siglec-9-Fc (recombinant human Siglec-9 extracellular domain Q18-G348 fused to human IgG1 Fc) (human); assay: BLI binning, hSiglec-9-Fc on AHC sensor; competitor bound first (row): 13J19
[8] = target: Human Siglec-9-Fc (recombinant human Siglec-9 extracellular domain Q18-G348 fused to human IgG1 Fc) (human); assay: BLI binning, hSiglec-9-Fc on AHC sensor; competitor bound first (row): 13O18
[9] = target: Human Siglec-9-Fc (recombinant human Siglec-9 extracellular domain Q18-G348 fused to human IgG1 Fc) (human); assay: BLI binning, hSiglec-9-Fc on AHC sensor; competitor bound first (row): 3L02 (self)
[10] = target: Human Siglec-9-Fc (recombinant human Siglec-9 extracellular domain Q18-G348 fused to human IgG1 Fc) (human); assay: BLI binning, hSiglec-9-Fc on AHC sensor; competitor bound first (row): 13H10 (printed 13H110)

Sequence of Human Siglec-9-Fc (recombinant human Siglec-9 extracellular domain Q18-G348 fused to human IgG1 Fc) (human) (chain, as listed by the source limits assumed): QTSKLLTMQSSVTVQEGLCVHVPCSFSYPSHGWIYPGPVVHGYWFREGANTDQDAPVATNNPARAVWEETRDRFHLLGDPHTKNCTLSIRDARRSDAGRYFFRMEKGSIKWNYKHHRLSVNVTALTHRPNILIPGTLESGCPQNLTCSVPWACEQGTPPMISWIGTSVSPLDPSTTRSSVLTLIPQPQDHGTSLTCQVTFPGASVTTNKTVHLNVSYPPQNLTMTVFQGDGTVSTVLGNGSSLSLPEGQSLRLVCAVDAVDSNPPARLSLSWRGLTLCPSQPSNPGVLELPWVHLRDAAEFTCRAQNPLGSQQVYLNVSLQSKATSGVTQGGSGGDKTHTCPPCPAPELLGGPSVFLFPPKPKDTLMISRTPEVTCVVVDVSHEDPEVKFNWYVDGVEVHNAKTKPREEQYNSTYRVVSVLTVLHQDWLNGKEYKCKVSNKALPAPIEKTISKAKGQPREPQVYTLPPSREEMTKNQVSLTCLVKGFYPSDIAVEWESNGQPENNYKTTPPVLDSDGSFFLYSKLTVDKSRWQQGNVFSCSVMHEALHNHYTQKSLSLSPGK

maximum binding nm shift [1]: 0.099 nm
maximum binding nm shift [2]: 0.14 nm
maximum binding nm shift [3]: 0.188 nm
maximum binding nm shift [4]: 0.031 nm
maximum binding nm shift [5]: -0.053 nm
maximum binding nm shift [6]: 0.214 nm
maximum binding nm shift [7]: 0.085 nm
maximum binding nm shift [8]: 0.091 nm
maximum binding nm shift [9]: 0 nm
maximum binding nm shift [10]: -0.064 nm
B1: 3L02 (antibody, V domains shown)
VH: DVQLQESGPGMVKPSQSLSLTCTVTGYSITSGYDWHWIRHFPGNKLEWMGYISYSAGTNYNPSLKSRISITHDTSKNHFFLKLNSVTTEDTATYYCAREGLTAYWYFDVWGTGTTVTVSS
VL: DIVMTQSQKFMSTSVGDRVSVTCKASQTVGTNVAWYQQKPGQSPKPLIYSASYRYSGVPDRFTGSGSGTDFTLTISNVQSEDLAEYFCQQYDSFPLTFGSGTKLEIK
